Measured values reported in the supplement of paper PMC10724198.
± gives the standard deviation of the averaged measurements.

Tested on: Saccharomyces cerevisiae
Experiment: protein stability index of tFT-peptide fusion (C-terminal peptide) (PSI (0-1 scale)); higher = more stable (slower turnover)
Conditions: genetic background: wild type; temperature: 30 C
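Also: PSI is a weighted mean of sequencing reads over stability bins, variants kept only with over 10 reads, mCherry proximal and sfGFP distal, peptide attached via GGGS linker.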

Row | Sequence | protein stability index
1 | PIGVFFVSGCVG | 0.606 ± 0.014
2 | PIPSPYYPPTFC | 0.73 ± 0.11
3 | PISGFLRPPPPF | 0.663 ± 0.012
4 | PISPLPPPRFLP | 0.677 ± 0.04
5 | PKKNIKSKNIIL | 0.714 ± 0.034
6 | PKSRSVTTSIPG | 0.691 ± 0.042
7 | PKVDLSVVRSGY | 0.638 ± 0.016
8 | PLAPLPMSPHLA | 0.572 ± 0.016
9 | PLAPPLRPLVSP | 0.66 ± 0.076
10 | PLASLPALHFSL | 0.678 ± 0.025
11 | PLASPRIYAQHL | 0.697 ± 0.016
12 | PLAWSAPCRPHT | 0.73 ± 0.029
13 | PLCAFLFLSSPP | 0.757 ± 0.031
14 | PLFPPPPLRSWP | 0.766 ± 0.089
15 | PLGCGLTRCVAT | 0.599 ± 0.0067
16 | PLGQGRRRPPDA | 0.732 ± 0.1
17 | PLHDGRFANDSF | 0.674 ± 0.043
18 | PLHPPCLPPSRL | 0.814 ± 0.043
19 | PLHPPSLPPPPT | 0.732 ± 0.032
20 | PLHPSFPPPPAP | 0.5147 ± 0.0044
21 | PLHRARAPHSYP | 0.7167 ± 0.006
22 | PLKPPTPDPPHR | 0.666 ± 0.027
23 | PLLLSPPPLYTF | 0.632 ± 0.028
24 | PLLPATFLPATP | 0.74 ± 0.021
25 | PLLPPLPATSHT | 0.786 ± 0.14
26 | PLLPPLPPRPPP | 0.633 ± 0.03

Row | Sequence | protein stability index
27 | PLLPPPPPPPPT | 0.718 ± 0.025
28 | PLLPPSSVPTPS | 0.784 ± 0.1
29 | PLLSPPSPLPPF | 0.724 ± 0.022
30 | PLLSPPSPPPPT | 0.713 ± 0.017
31 | PLPAAPPILFSL | 0.731 ± 0.038
32 | PLPAPPPPTLPD | 0.715 ± 0.065
33 | PLPARSPPPTSV | 0.652 ± 0.026
34 | PLPFPLLPPPPH | 0.705 ± 0.013
35 | PLPFPPPLPPPT | 0.681 ± 0.043
36 | PLPFPSSPPPPP | 0.6723 ± 0.0018
37 | PLPFPSTPPPPD | 0.691 ± 0.031
38 | PLPFRSSPLLVL | 0.614 ± 0.05
39 | PLPGLLHCPTSP | 0.717 ± 0.12
40 | PLPLAPHPDYSL | 0.687 ± 0.052
41 | PLPLFGPRLSPP | 0.875 ± 0.065
42 | PLPLHPSALPSL | 0.676 ± 0.05
43 | PLPLPLLPPPLP | 0.764 ± 0.11
44 | PLPLPPPSLSPL | 0.73279 ± 8.7e-05
45 | PLPLPVSPRPPP | 0.6807 ± 0.0063
46 | PLPLPYCQASPV | 0.658 ± 0.008
47 | PLPLSPPLLPAP | 0.6 ± 0.0082
48 | PLPPCCLPPSAF | 0.6857 ± 0.0061
49 | PLPPCPPTPCPS | 0.648 ± 0.013
50 | PLPPHVPPSLPP | 0.679 ± 0.0083
51 | PLPPPDPPAPSL | 0.716 ± 0.0085
52 | PLPPPGPLPSPP | 0.736 ± 0.043

Row | Sequence | protein stability index
53 | PLPPPLPPTLPL | 0.72 ± 0.018
54 | PLPPPPALLFPP | 0.733 ± 0.054
55 | PLPPPPPALPLP | 0.683 ± 0.037
56 | PLPPPPPDILTP | 0.743 ± 0.013
57 | PLPPPPPTSLPP | 0.705 ± 0.043
58 | PLPPRPHPLLSP | 0.6526 ± 0.0026
59 | PLPPSPPPPPSP | 0.677 ± 0.019
60 | PLPQNIPFPLPL | 0.735 ± 0.019
61 | PLPRLSYRPPTL | 0.663 ± 0.028
62 | PLPRPLPPRVPF | 0.712 ± 0.013
63 | PLPRPPSPLPAL | 0.689 ± 0.039
64 | PLPSPPVPPPPP | 0.6796 ± 0.0043
65 | PLPTGTQPTRHR | 0.669 ± 0.0079
66 | PLPTHISPPLPS | 0.6893 ± 0.006
67 | PLRLPPPRSPPL | 0.689 ± 0.032
68 | PLRPRGAAPPHP | 0.6842 ± 0.0026
69 | PLSAPNHVPGRT | 0.702 ± 0.045
70 | PLSFPTFVPLPI | 0.663 ± 0.043
71 | PLSFSPSLRYPP | 0.659 ± 0.023
72 | PLSGFSSPSFFP | 0.693 ± 0.025
73 | PLSPLPPPPPPP | 0.649 ± 0.04
74 | PLSPPPPSPPFA | 0.743 ± 0.013
75 | PLSPPPPSPPRP | 0.645 ± 0.025
76 | PLSPRHVSPPLL | 0.778 ± 0.045
77 | PLSRPFSPSLPL | 0.66 ± 0.028
78 | PLSRYPSPSLPL | 0.693 ± 0.0076

Row | Sequence | protein stability index
79 | PLVFSTSLCVSE | 0.666 ± 0.0093
80 | PLVLPPSPASPF | 0.694 ± 0.042
81 | PLVLSHRLPLPP | 0.703 ± 0.067
82 | PLVPLAFWSPLV | 0.686 ± 0.035
83 | PLVPPESPRSQV | 0.6564 ± 0.0034
84 | PLVSLLPHPRAA | 0.495 ± 0.094
85 | PLWALVRDVRVG | 0.652 ± 0.033
86 | PLYLSFSFCPSF | 0.611 ± 0.013
87 | PMHVLTKLCDGV | 0.689 ± 0.083
88 | PMLSLFRYNVVR | 0.697 ± 0.021
89 | PMPGRSEREYQV | 0.711 ± 0.087
90 | PNLARPSTPTTS | 0.72 ± 0.023
91 | PNLKLSPKWAKP | 0.67 ± 0.063
92 | PNLRPPSPPSLL | 0.714 ± 0.049
93 | PNVPVPTPPPGI | 0.729 ± 0.061
94 | PPAALPRSTPPP | 0.704 ± 0.063
95 | PPAFLSPPLDPL | 0.6054 ± 0.0032
96 | PPAPGPPHPPAL | 0.651 ± 0.013
97 | PPAPPHPPPFPP | 0.589 ± 0.052
98 | PPAPPLSSPPPS | 0.662 ± 0.053
99 | PPAPPPPLPPPP | 0.64 ± 0.017
100 | PPAPPPPPLPSY | 0.714 ± 0.052
101 | PPAPRPSTRHTP | 0.74 ± 0.013
102 | PPAPSPLPPPPF | 0.756 ± 0.03
103 | PPAPSPRPPPPP | 0.708 ± 0.067
104 | PPAPTAPPLSSH | 0.681 ± 0.03

Row | Sequence | protein stability index
105 | PPARRPVPPLSC | 0.7187 ± 0.0058
106 | PPASPPAPPTFG | 0.645 ± 0.021
107 | PPATPTNPPVSP | 0.687 ± 0.027
108 | PPATTPICSTPS | 0.681 ± 0.017
109 | PPAVPSTPLSPP | 0.685 ± 0.032
110 | PPCTVHPLPRLP | 0.727 ± 0.02
111 | PPDLSWPPAPLP | 0.824 ± 0.021
112 | PPDPRLPRHDRP | 0.755 ± 0.018
113 | PPEPRPLPDAPP | 0.5977 ± 0.0052
114 | PPFDSAHPTPAP | 0.739 ± 0.019
115 | PPFLLPCFPCFS | 0.494 ± 0.07
116 | PPFLPPSPPAPP | 0.691 ± 0.031
117 | PPFPPHPPPSSA | 0.6873 ± 0.0052
118 | PPFPPPPPPSPS | 0.751 ± 0.07
119 | PPFPPPSPPHAL | 0.751 ± 0.1
120 | PPFPPRPLPPIP | 0.693 ± 0.017
121 | PPFSLVTGLPCP | 0.71 ± 0.048
122 | PPFVPFLLIFPP | 0.611 ± 0.042
123 | PPGGSRTEGRRT | 0.688 ± 0.049
124 | PPGPPPPLPISP | 0.7244 ± 0.0044
125 | PPGPRPTPPPPI | 0.641 ± 0.045
126 | PPGPTSSPTKTH | 0.729 ± 0.056
127 | PPGSPGPRTPPP | 0.708 ± 0.024
128 | PPHAAPPHICWQ | 0.727 ± 0.049
129 | PPHCSSPTPARH | 0.694 ± 0.028
130 | PPHHPPPASRSQ | 0.653 ± 0.068

Row | Sequence | protein stability index
131 | PPHLPPPPPVPA | 0.5751 ± 0.0052
132 | PPHPKPPPAPPP | 0.527 ± 0.041
133 | PPHPLPPPSPPF | 0.682 ± 0.034
134 | PPHPPRPSVSSS | 0.687 ± 0.0097
135 | PPHPRTPPATPP | 0.601 ± 0.12
136 | PPHPSPPHPSSA | 0.752 ± 0.01
137 | PPHSIPSPSHPR | 0.714 ± 0.052
138 | PPHSPETVPARP | 0.688 ± 0.046
139 | PPHTALLPPAPA | 0.583 ± 0.019
140 | PPHTRTACHRAP | 0.7251 ± 0.0034
141 | PPLAAFLPFLAL | 0.694 ± 0.0011
142 | PPLAPPHPCPPP | 0.698 ± 0.018
143 | PPLASFPPPPPL | 0.667 ± 0.064
144 | PPLASPDPPLPL | 0.66 ± 0.083
145 | PPLGPARNYPSL | 0.673 ± 0.018
146 | PPLLHPLPPPLP | 0.659 ± 0.014
147 | PPLLPPPLTPPD | 0.628 ± 0.051
148 | PPLLPPTPPLSA | 0.625 ± 0.018
149 | PPLLPRPPPLSP | 0.6677 ± 0.0037
150 | PPLPCATLPSHS | 0.706 ± 0.013
151 | PPLPFSSSRFPS | 0.666 ± 0.02
152 | PPLPLPTLPCRP | 0.644 ± 0.035
153 | PPLPLTAPHLCH | 0.705 ± 0.03
154 | PPLPPPPHPPFP | 0.683 ± 0.07
155 | PPLPPPPPPVPA | 0.681 ± 0.036
156 | PPLPPRSPSAPL | 0.695 ± 0.034

Row | Sequence | protein stability index
157 | PPLPPSSMPPSH | 0.685 ± 0.035
158 | PPLPPVPSPPPP | 0.654 ± 0.025
159 | PPLPSLLGLLFP | 0.6773 ± 0.0044
160 | PPLPSSPPSSPL | 0.68 ± 0.013
161 | PPLRPPPPLPVP | 0.663 ± 0.054
162 | PPLSCFPLSTRL | 0.683 ± 0.002
163 | PPLSFDTSRVAP | 0.677 ± 0.049
164 | PPLSHPRPILAP | 0.5683 ± 0.0025
165 | PPLSPLAPPSHP | 0.727 ± 0.069
166 | PPLSPRLLWSPV | 0.711 ± 0.0044
167 | PPLVPPPLRASP | 0.684 ± 0.037
168 | PPLYFFSPMAFF | 0.783 ± 0.032
169 | PPMSYYLFPCSR | 0.699 ± 0.061
170 | PPPAFRLPLPPP | 0.727 ± 0.072
171 | PPPALTHLLPLP | 0.678 ± 0.058
172 | PPPAPLSPLSPR | 0.6777 ± 0.0016
173 | PPPAPPSPPPPP | 0.65 ± 0.054
174 | PPPAPPVRPDRS | 0.686 ± 0.048
175 | PPPASPLPPASP | 0.667 ± 0.031
176 | PPPASPSPSMVF | 0.693 ± 0.024
177 | PPPASRTPSNLP | 0.732 ± 0.046
178 | PPPDPPLSPPPP | 0.676 ± 0.087
179 | PPPDYPPTPAPS | 0.715 ± 0.054
180 | PPPEVDLRPCHC | 0.688 ± 0.055
181 | PPPFCPCNRLNG | 0.702 ± 0.0078
182 | PPPFSPPSDLPL | 0.601 ± 0.041

Row | Sequence | protein stability index
183 | PPPGPPPPPPYP | 0.656 ± 0.12
184 | PPPGPPSAPPPH | 0.706 ± 0.047
185 | PPPGPRPPSRSN | 0.581 ± 0.022
186 | PPPHAARSLFSL | 0.733 ± 0.098
187 | PPPHATPAPSPL | 0.706 ± 0.045
188 | PPPHPGFHLSSP | 0.673 ± 0.088
189 | PPPHPKPPPAGH | 0.62 ± 0.069
190 | PPPHPPTPLPPT | 0.701 ± 0.018
191 | PPPHSPSPTPHW | 0.713 ± 0.016
192 | PPPHSSPPPSPP | 0.693 ± 0.069
193 | PPPHTPLPPLAP | 0.744 ± 0.05
194 | PPPLGPPPPSSL | 0.774 ± 0.072
195 | PPPLLCPSSAPP | 0.783 ± 0.087
196 | PPPLPALRPPSH | 0.7193 ± 0.0013
197 | PPPLPLVPPSPP | 0.651 ± 0.033
198 | PPPLPPAPPPFP | 0.698 ± 0.017
199 | PPPLPPFPPAPP | 0.642 ± 0.012
200 | PPPLPPPCSAPP | 0.736 ± 0.012
201 | PPPLPPPSLVSF | 0.6741 ± 0.0051
202 | PPPLPPSIPLPL | 0.743 ± 0.031
